Results from article PMC5290278 (Nature Communications, 2017).

Molecular target: T1, GST-NPHP4-C2^650-839 (human, UniProt O75161 650-839)
T1 construct: central C2 domain of NPHP4, residues 650-839; also called GST-N4-C2^2650-839 (as printed in the legend); GST fused to the central C2 domain of NPHP4; source: bacterially purified
T1 sequence (looked up): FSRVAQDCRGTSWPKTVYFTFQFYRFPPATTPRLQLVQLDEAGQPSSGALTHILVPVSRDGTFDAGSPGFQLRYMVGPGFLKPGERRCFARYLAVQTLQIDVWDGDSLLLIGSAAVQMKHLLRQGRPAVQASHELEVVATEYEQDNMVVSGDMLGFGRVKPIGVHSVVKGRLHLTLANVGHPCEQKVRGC
Experiment: pull-down; GFP-KIF13B-C2^861-1,000 held on anti-GFP immunocomplexes, washed two times in high salt buffer (600 mM NaCl, 10 mM Tris-HCl, 0.1% NP-40); bacterially purified GST-NPHP4-C2^650-839 (500 ng/µl) added in modified EBC buffer (140 mM NaCl, 10 mM Tris-HCl, 5 mM EDTA, 0.5% NP-40); standard GFP IP
Details: both partners purified

binding result: binds
B1: GFP-KIF13B-C2^861-1,000 (domain or fragment, human, UniProt Q9NQT8 861-1000, looked up)
chain: KETQENKLVCMVKILQATGLPQHLSHFVFCKYSFWDQQEPVIVAPEVDTSSSSVSKEPHCMVVFDHCNEFSVNITEDFIEHLSEGALAIEVYGHKINDPRKNPALWDLGIIQAKTRSLRDRWSEVTRKLEFWVQILEQNE
notes: made by PCR from the GFP-KIF13B plasmid and cloned into pEGFP-C1; also called KIF13B RPGRIP1N-C2 type domain; source: HEK293T, transfected, in lysate; also immunoisolated on anti-GFP beads with high salt washes
